Where two headings read alike, the source gives them in different places.
T1: FLAG-tagged recombinant human APRIL (human, UniProt O75888 105-250)
T1 construct: KINEXA ligand; also called huAPRIL
T1 sequence: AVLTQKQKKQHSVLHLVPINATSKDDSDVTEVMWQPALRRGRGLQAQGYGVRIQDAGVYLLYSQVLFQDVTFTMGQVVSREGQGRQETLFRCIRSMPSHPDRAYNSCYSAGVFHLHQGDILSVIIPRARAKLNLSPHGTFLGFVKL

B1: FLAG-tagged cynomolgous APRIL (ligand, not shown: small tags and cut ends)
chain: KQKKQHSVLHLVPINATSKDDSDVTEVMWQPALRRGRGLQAQGYGVRIRDAGVYLLYSQVLFQDVTFTMGQVVSREGQGKQETLFRCIRSMPSHPDRAYNSCYSAGVFHLHQGDILSVIIPRARAKLNLSPHGTFLGFVKL
notes: FLAG-tagged, expressed with TPA signal peptide; also called cyAPRIL
B2: Variant BAv9-5-Ig (Fc fusion, human)
chain: AGQCSQNEYFDRLVRACIPCQLRCSSNTPPLTCQRYCNAGVTNSVKGTNAERKSSVECPPSPAPPVAGPSVFLFPPKPKDTLMISRTPEVTCVVVDVSHEDPEVQFNWYVDGVEVHNAKTKPREEQFNSTFRVVSVLTVVHQDWLNGKEYKCKVSNKGLPAPIEKTISKTKGQPREPQVYTLPPSREEMTKNQVSLTCLVKGFYPSDISVEWESNGQPENNYKTTPPMLDSDGSFFLYSKLTVDKSRWQQGNVFSCSVMHEALHNHYTQKSLSLSPGK
notes: domain: Fc; also called Variant 9-5-Ig; BAv9-5-PIg18

What was measured:
[1] = biological target: T2, Variant BAv8-10-Ig (human, UniProt P01859-1 99-326 = IgG part); experiment: BIACORE SPR
T2 construct: domain: Fc; also called Variant 8-10-Ig; BAv8-10-PIg18
T2 sequence (P01859 other isoform, or with tags, fused parts or gaps mutant limits assumed): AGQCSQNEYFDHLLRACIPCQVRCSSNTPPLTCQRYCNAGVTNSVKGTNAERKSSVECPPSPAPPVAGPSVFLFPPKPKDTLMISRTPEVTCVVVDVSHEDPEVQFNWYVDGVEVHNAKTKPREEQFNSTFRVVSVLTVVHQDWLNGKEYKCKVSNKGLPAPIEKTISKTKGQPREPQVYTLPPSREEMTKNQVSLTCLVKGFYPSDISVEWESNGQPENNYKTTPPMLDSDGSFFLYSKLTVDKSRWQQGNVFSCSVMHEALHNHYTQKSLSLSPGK
Experimental: (§1) For human BAFF, cynomolgus monkey APRIL, and mouse APRIL measurements, mouse monoclonal antibody (IgG1) anti-FLAG M2 (Sigma Aldrich, Cat. No. F1804) was immobilized on CM3 sensor chips (GE Healthcare, Cat. No. BR-1005-41) according to the manufacturer's protocol. Antibody was diluted to 30 μg/ml in immobilization buffer (10 mM pH 5±0.20; GE Healthcare; GE Healthcare, Catalog No. BR-1003-51). […] Unreacted sites were quenched with 35 μl of 1M ethanolamine-HCl, pH 8.5 (GE Healthcare, GE Healthcare, Cat. No. BR-1000-50). This procedure typically yielded 3,000-4,000 response units (RU) of coupled antibody.
(§2) The fusion polypeptides were diluted in HBS-EP buffer and flowed over ligand-coated sensor chips. The variant BCMA-Ig and surrogate control fusion proteins were injected at three concentrations (1.5 nM, 15 nM, and 150 nM at 30 μl/min for 2 minutes per association phase) in a single binding cycle, followed by a 20 minute incubation with HBS-EP buffer containing no protein at the same flow rate. A similar protocol was followed for Z-TACI-Ig, except that the injections were at 4.5 nM, 45 nM, and 450 nM.
Using available information from the structures and published literature, several residues in BAv8-10 were targeted for substitution with conserved as well as non-conserved residues and their effect on BAFF and APRIL binding was assessed by BIACORE.

[2] = biological target: T3, Variant 50237854-Ig (human, UniProt P01859-1 99-326 = IgG part); experiment: BIACORE SPR
T3 construct: domain: Fc; also called Parent 4
T3 sequence (P01859 other isoform, or with tags, fused parts or gaps mutant limits assumed): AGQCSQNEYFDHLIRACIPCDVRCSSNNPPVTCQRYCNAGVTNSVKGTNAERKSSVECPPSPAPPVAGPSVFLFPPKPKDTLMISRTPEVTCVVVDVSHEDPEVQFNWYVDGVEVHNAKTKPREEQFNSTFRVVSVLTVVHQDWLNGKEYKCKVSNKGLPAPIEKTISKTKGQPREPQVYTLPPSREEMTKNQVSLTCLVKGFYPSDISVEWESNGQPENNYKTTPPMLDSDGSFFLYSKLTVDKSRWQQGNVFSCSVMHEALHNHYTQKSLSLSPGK

[3] = biological target: T4, Variant 50239040-Ig (human, UniProt P01859-1 99-326 = IgG part); experiment: BIACORE SPR
T4 construct: domain: Fc; also called Parent 10

[4] = biological target: T5, Variant 50238475-Ig (human, UniProt P01859-1 99-326 = IgG part); experiment: BIACORE SPR
T5 construct: domain: Fc; also called Parent 9; Variant 50238475-PIg18
T5 sequence (P01859 other isoform, or with tags, fused parts or gaps mutant limits assumed): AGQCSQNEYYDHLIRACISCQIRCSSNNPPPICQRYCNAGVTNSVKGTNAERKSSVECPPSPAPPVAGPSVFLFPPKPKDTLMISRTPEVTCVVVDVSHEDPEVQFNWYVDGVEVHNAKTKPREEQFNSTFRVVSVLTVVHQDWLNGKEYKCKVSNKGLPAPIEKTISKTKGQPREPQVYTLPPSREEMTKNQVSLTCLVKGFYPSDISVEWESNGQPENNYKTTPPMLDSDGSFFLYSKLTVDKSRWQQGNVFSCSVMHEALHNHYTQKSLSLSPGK

[5] = biological target: T6, Variant 50238494-Ig (human, UniProt P01859-1 99-326 = IgG part); experiment: BIACORE SPR
T6 construct: domain: Fc; also called Parent 11

[6] = biological target: T7, Variant 50239698-Ig (human, UniProt P01859-1 99-326 = IgG part); experiment: BIACORE SPR
T7 construct: domain: Fc; also called Parent 5
T7 sequence (P01859 other isoform, or with tags, fused parts or gaps mutant limits assumed): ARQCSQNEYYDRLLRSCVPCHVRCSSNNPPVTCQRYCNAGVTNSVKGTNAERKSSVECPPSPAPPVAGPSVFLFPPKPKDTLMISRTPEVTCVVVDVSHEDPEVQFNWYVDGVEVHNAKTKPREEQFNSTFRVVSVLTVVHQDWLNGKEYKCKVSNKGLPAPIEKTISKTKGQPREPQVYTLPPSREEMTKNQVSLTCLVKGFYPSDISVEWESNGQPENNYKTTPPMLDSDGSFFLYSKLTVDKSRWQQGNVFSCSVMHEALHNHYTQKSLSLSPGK

[7] = biological target: T8, Variant 50239978-Ig (human, UniProt P01859-1 99-326 = IgG part); experiment: BIACORE SPR
T8 construct: domain: Fc; also called Parent 12
T8 sequence (P01859 other isoform, or with tags, fused parts or gaps mutant limits assumed): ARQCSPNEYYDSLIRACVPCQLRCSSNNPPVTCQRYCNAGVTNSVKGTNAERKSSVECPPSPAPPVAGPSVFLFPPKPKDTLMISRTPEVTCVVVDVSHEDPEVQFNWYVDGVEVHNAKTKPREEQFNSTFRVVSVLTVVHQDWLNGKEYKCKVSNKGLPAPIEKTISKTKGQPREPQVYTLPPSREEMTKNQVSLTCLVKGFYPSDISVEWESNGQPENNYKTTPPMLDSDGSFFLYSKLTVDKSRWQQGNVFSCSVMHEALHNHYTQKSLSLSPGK

[8] = biological target: T9, Variant 50237847-Ig (human, UniProt P01859-1 99-326 = IgG part); experiment: BIACORE SPR
T9 construct: domain: Fc; also called Parent 3
T9 sequence (P01859 other isoform, or with tags, fused parts or gaps mutant limits assumed): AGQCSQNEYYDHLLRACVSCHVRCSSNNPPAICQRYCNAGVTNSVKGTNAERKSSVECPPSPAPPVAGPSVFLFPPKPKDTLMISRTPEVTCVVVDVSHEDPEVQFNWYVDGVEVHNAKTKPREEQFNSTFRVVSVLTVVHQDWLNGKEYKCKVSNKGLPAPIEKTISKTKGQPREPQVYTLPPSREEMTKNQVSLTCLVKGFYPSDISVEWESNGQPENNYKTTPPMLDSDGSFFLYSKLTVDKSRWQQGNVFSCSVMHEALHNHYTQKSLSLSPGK

[9] = biological target: T10, Variant 50234224-Ig (human, UniProt P01859-1 99-326 = IgG part); experiment: BIACORE SPR
T10 construct: domain: Fc; also called Parent 6
T10 sequence (P01859 other isoform, or with tags, fused parts or gaps mutant limits assumed): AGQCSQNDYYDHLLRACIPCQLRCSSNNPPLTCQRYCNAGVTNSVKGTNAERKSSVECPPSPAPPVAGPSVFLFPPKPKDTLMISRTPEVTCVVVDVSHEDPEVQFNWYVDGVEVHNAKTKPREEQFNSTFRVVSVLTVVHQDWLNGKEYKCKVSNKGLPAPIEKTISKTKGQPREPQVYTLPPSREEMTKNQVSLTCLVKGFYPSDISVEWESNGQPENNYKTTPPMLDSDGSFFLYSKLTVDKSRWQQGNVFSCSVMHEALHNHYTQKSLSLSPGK

[10] = biological target: T11, Variant 50238779-Ig (human, UniProt P01859-1 99-326 = IgG part); experiment: BIACORE SPR
T11 construct: domain: Fc; also called Parent 1
T11 sequence (P01859 other isoform, or with tags, fused parts or gaps mutant limits assumed): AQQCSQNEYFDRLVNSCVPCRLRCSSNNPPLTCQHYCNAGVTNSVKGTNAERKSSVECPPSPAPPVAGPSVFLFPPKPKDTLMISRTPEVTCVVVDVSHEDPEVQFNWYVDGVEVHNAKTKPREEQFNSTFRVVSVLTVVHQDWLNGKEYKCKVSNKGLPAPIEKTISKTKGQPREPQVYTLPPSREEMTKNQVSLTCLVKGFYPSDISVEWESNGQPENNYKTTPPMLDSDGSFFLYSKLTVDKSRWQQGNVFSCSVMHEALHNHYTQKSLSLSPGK

[11] = biological target: T12, Variant 50238504R-Ig (human, UniProt P01859-1 99-326 = IgG part); experiment: BIACORE SPR
T12 construct: domain: Fc; also called Parent 8
T12 sequence (P01859 other isoform, or with tags, fused parts or gaps mutant limits assumed): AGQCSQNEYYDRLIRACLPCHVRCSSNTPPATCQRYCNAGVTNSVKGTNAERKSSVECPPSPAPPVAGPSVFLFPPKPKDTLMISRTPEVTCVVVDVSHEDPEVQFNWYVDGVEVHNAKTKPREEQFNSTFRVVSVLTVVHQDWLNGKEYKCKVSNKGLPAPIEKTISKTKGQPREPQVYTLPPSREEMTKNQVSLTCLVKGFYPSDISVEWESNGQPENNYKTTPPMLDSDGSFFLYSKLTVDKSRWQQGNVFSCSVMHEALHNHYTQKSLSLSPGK

[12] = biological target: T13, Variant 50240054-Ig (human, UniProt P01859-1 99-326 = IgG part); experiment: BIACORE SPR
T13 construct: domain: Fc; also called Parent 2
T13 sequence (P01859 other isoform, or with tags, fused parts or gaps mutant limits assumed): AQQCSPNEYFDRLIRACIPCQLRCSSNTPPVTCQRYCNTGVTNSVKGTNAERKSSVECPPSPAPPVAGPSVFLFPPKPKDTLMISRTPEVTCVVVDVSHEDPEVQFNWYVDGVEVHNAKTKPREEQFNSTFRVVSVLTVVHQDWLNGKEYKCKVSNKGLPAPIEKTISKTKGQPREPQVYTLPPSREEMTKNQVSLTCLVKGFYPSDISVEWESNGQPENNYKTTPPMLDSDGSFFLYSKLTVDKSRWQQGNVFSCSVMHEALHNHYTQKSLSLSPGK

[13] = biological target: T14, Variant 50237844-Ig (human, UniProt P01859-1 99-326 = IgG part); experiment: BIACORE SPR
T14 construct: domain: Fc; also called Parent 7
T14 sequence (P01859 other isoform, or with tags, fused parts or gaps mutant limits assumed): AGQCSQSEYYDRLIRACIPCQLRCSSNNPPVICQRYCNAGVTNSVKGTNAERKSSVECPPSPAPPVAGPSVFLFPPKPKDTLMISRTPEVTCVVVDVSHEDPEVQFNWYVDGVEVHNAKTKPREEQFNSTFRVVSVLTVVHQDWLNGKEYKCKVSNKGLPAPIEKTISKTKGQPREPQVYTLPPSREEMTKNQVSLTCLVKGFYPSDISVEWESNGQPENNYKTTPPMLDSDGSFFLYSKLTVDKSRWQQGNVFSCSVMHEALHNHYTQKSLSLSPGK

[14] = biological target: T15, Variant BAv1-12-Ig (human, UniProt P01859-1 99-326 = IgG part); experiment: BIACORE SPR
T15 construct: domain: Fc; also called Variant 1-12-Ig
T15 sequence (P01859 other isoform, or with tags, fused parts or gaps mutant limits assumed): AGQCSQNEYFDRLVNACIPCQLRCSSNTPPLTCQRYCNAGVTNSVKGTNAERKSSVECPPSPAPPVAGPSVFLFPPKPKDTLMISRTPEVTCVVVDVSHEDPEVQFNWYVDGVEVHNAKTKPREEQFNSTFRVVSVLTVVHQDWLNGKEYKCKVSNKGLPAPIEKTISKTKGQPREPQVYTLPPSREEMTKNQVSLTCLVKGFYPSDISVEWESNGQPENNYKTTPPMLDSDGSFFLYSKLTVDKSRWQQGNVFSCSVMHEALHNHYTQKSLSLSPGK
From the text: as §1, with “The standard kinetic assay measures binding kinetics of trimeric ligand (e.g., human BAFF, cynomolgus monkey APRIL, mouse BAFF, or mouse APRIL) coated on sensor chips and dimeric analytes (e.g., variant BCMA-Ig fusion proteins) in the mobile phase. […] For” for “For”
as §2
(§3) The analyses described above were performed on protein preparations of representative variant BCMA ECD-Ig fusion polypeptides, as well as the Z-TACI-Ig and [S40G]huBCMA ECD-Ig control fusion polypeptides, and the data is presented in Table 1.

[15] = biological target: T16, Variant BAv8-9-Ig (human, UniProt P01859-1 99-326 = IgG part); experiment: BIACORE SPR
T16 construct: domain: Fc; also called Variant 8-9-Ig; BAv8-9-PIg18
T16 sequence (P01859 other isoform, or with tags, fused parts or gaps mutant limits assumed): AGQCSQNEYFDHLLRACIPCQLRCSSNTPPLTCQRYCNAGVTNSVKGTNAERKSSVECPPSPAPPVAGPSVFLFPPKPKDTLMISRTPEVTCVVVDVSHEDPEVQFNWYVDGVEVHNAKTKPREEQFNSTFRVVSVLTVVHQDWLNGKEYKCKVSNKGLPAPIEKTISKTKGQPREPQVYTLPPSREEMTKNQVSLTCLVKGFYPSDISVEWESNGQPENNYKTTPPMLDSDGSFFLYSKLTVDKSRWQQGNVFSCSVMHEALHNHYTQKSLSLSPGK
From the text: as §1, with “The standard kinetic assay measures binding kinetics of trimeric ligand (e.g., human BAFF, cynomolgus monkey APRIL, mouse BAFF, or mouse APRIL) coated on sensor chips and dimeric analytes (e.g., variant BCMA-Ig fusion proteins) in the mobile phase. […] For” for “For”
as §2, §3

[16] = biological target: T5, Variant 50238475-Ig; experiment: BIACORE SPR; remark: listed apart in the source
From the text: as §1, with “The standard kinetic assay measures binding kinetics of trimeric ligand (e.g., human BAFF, cynomolgus monkey APRIL, mouse BAFF, or mouse APRIL) coated on sensor chips and dimeric analytes (e.g., variant BCMA-Ig fusion proteins) in the mobile phase. […] For” for “For”
as §2, §3

[17] = biological target: T17, Variant BAv11-6-Ig (human, UniProt P01859-1 99-326 = IgG part); experiment: BIACORE SPR
T17 construct: domain: Fc; also called Variant 11-6-Ig; BAv11-6-PIg18
T17 sequence (P01859 other isoform, or with tags, fused parts or gaps mutant limits assumed): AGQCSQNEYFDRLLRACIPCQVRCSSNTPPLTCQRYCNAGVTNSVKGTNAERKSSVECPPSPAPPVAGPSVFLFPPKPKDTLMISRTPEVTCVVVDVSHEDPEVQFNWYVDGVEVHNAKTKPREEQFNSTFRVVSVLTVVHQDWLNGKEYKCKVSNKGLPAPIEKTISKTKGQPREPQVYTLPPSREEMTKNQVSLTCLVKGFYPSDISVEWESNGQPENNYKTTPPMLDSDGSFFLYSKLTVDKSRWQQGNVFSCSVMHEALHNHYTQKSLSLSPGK
From the text: as §1, with “The standard kinetic assay measures binding kinetics of trimeric ligand (e.g., human BAFF, cynomolgus monkey APRIL, mouse BAFF, or mouse APRIL) coated on sensor chips and dimeric analytes (e.g., variant BCMA-Ig fusion proteins) in the mobile phase. […] For” for “For”
as §2, §3

[18] = biological target: T18, BAv66-Ig (human, UniProt P01859-1 99-326 = IgG part); experiment: BIACORE SPR
T18 construct: domain: Fc; also called Variant BAv66-Ig
T18 sequence (P01859 other isoform, or with tags, fused parts or gaps limits assumed): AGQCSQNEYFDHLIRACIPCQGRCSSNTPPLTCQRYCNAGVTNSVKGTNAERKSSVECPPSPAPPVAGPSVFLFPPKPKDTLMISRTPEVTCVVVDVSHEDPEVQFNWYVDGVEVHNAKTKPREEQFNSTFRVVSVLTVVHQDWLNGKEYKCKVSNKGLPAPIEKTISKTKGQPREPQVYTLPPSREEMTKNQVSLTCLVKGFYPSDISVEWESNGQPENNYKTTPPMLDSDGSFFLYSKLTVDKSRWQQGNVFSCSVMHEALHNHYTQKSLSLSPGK
From the text: as §1, with “The standard kinetic assay measures binding kinetics of trimeric ligand (e.g., human BAFF, cynomolgus monkey APRIL, mouse BAFF, or mouse APRIL) coated on sensor chips and dimeric analytes (e.g., variant BCMA-Ig fusion proteins) in the mobile phase. […] For” for “For”
as §2, §3

[19] = biological target: B2; experiment: BIACORE SPR
From the text: as §1, with “The standard kinetic assay measures binding kinetics of trimeric ligand (e.g., human BAFF, cynomolgus monkey APRIL, mouse BAFF, or mouse APRIL) coated on sensor chips and dimeric analytes (e.g., variant BCMA-Ig fusion proteins) in the mobile phase. […] For” for “For”
as §2, §3

[20] = biological target: T19, Variant BAv9-1-Ig (human, UniProt P01859-1 99-326 = IgG part); experiment: BIACORE SPR
T19 construct: domain: Fc; also called Variant 9-1-Ig; BAv9-1-pIg18
T19 sequence (P01859 other isoform, or with tags, fused parts or gaps mutant limits assumed): as the sequence (P01859 other isoform, or with tags, fused parts or gaps limits assumed) above, with G22L counted along it
From the text: as §1, with “The standard kinetic assay measures binding kinetics of trimeric ligand (e.g., human BAFF, cynomolgus monkey APRIL, mouse BAFF, or mouse APRIL) coated on sensor chips and dimeric analytes (e.g., variant BCMA-Ig fusion proteins) in the mobile phase. […] For” for “For”
as §2, §3

[21] = biological target: T20, Variant BAv3-10-Ig (human, UniProt P01859-1 99-326 = IgG part); experiment: BIACORE SPR
T20 construct: domain: Fc; also called Variant 3-10-Ig; BAv3-10-PIg18
T20 sequence (P01859 other isoform, or with tags, fused parts or gaps mutant limits assumed): as the sequence (P01859 other isoform, or with tags, fused parts or gaps limits assumed) above, with H12R, G22L counted along it
From the text: as §1, with “The standard kinetic assay measures binding kinetics of trimeric ligand (e.g., human BAFF, cynomolgus monkey APRIL, mouse BAFF, or mouse APRIL) coated on sensor chips and dimeric analytes (e.g., variant BCMA-Ig fusion proteins) in the mobile phase. […] For” for “For”
as §2, §3

[22] = biological target: T2, Variant BAv8-10-Ig; experiment: BIACORE SPR; remark: listed apart in the source
From the text: as §1, with “The standard kinetic assay measures binding kinetics of trimeric ligand (e.g., human BAFF, cynomolgus monkey APRIL, mouse BAFF, or mouse APRIL) coated on sensor chips and dimeric analytes (e.g., variant BCMA-Ig fusion proteins) in the mobile phase. […] For” for “For”
as §2, §3

[23] = biological target: T1, FLAG-tagged recombinant human APRIL; experiment: KinExA
[24] = biological target: T21, FLAG-tagged human BAFF (human, UniProt Q9Y275 134-285, limits assumed); experiment: KinExA
T21 construct: used in BIACORE (Ex. 9) and KINEXA (Ex. 11); also called huBAFF

[25] = biological target: membrane-huBAFF (human, UniProt Q9Y275 1-285); experiment: cell-based or functional assay
[26] = biological target: T1, FLAG-tagged recombinant human APRIL; experiment: KinExA; remark: listed apart in the source
[27] = biological target: T21, FLAG-tagged human BAFF; experiment: KinExA; remark: listed apart in the source
[28] = biological target: B1; experiment: BIACORE SPR
From the text: as §1, with “The standard kinetic assay measures binding kinetics of trimeric ligand (e.g., human BAFF, cynomolgus monkey APRIL, mouse BAFF, or mouse APRIL) coated on sensor chips and dimeric analytes (e.g., variant BCMA-Ig fusion proteins) in the mobile phase. […] For” for “For”
as §2, §3

[29] = biological target: T21, FLAG-tagged human BAFF; experiment: BIACORE SPR
From the text: as §1, with “The standard kinetic assay measures binding kinetics of trimeric ligand (e.g., human BAFF, cynomolgus monkey APRIL, mouse BAFF, or mouse APRIL) coated on sensor chips and dimeric analytes (e.g., variant BCMA-Ig fusion proteins) in the mobile phase. […] For” for “For”
as §2, §3

Binder: B1
Kd [1]: 76 pM
Kd [2]: 59 pM
Kd [3]: 54 pM
Kd [4]: 42 pM
Kd [5]: 12 pM
Kd [6]: 17 pM
Kd [7]: 24 pM
Kd [8]: 37 pM
Kd [9]: 39 pM
Kd [10]: 28 pM
Kd [11]: 72 pM
Kd [12]: 23 pM
Kd [13]: 28 pM
Kd [14]: 10.1 pM
Kd [15]: 22.6 pM
Kd [16]: 78.9 pM
Kd [17]: 24.4 pM
Kd [18]: 62600 pM
Kd [19]: 28.4 pM
Kd [20]: 21.4 pM
Kd [21]: 13.9 pM
Kd [22]: 53.9 pM

Binder: B2
Selectivity for huAPRIL (KD BAFF/KD APRIL) [23]: 0.39 ratio
Selectivity for huBAFF (KD APRIL/KD BAFF) [24]: 2.59 ratio
IC50 (read off the curve) (NFkappaB luciferase signal of HEK293-huBCMA reporter cells stimulated with HEK-293 cells expressing membrane huBAFF) [25]: ~500 pM
fold improvement over control [26]: 0.1 fold
fold improvement over control [27]: 358 fold
fold improvement KD vs control [28]: 0.5 fold
fold improvement KD vs control [29]: 10.9 fold

Reference: patent US20250042970A1 (AURINIA PHARMACEUTICALS, published 2025)
